Measurements as given in patent US20240317895A1.

How the values were obtained:
[1] = molecular target: PT linker-SpyCatcher-His (Streptococcus pyogenes); assay: depletion of SpyTag-GA (15 mg/g resin) from supernatant, conditions of Example 4.3; SpyCatcher modified epoxy carrier, batch 1
[2] = molecular target: PT linker-SpyCatcher-His (Streptococcus pyogenes); assay: depletion of SpyTag-GA (15 mg/g resin) from supernatant, conditions of Example 4.3; SpyCatcher modified epoxy carrier, batch 2
[3] = molecular target: PT linker-SpyCatcher-His (Streptococcus pyogenes); assay: depletion of SpyTag-GA (15 mg/g resin) from supernatant, conditions of Example 4.3; SpyCatcher modified epoxy carrier, batch 3
[4] = molecular target: PT linker-SpyCatcher-His (Streptococcus pyogenes); assay: depletion of SpyTag-GA (15 mg/g resin) from supernatant, conditions of Example 4.3; SpyCatcher modified epoxy carrier, batch 4
[5] = molecular target: PT linker-SpyCatcher-His (Streptococcus pyogenes); assay: depletion of SpyTag-GA (15 mg/g resin) from supernatant, conditions of Example 4.3; SpyCatcher modified epoxy carrier, batch 5
[6] = molecular target: PT linker-SpyCatcher-His (Streptococcus pyogenes); assay: depletion of purified SpyTag-GA (15 mg/g carrier) from supernatant, SDS-PAGE densitometry; SpyCatcher-LX-1000EP; pH 7.0, 25 C, 2 h
[7] = molecular target: PT linker-SpyCatcher-His (Streptococcus pyogenes); assay: depletion of SpyTag-GA (10 mg/g carrier) from E. coli lysate supernatant, SDS-PAGE densitometry; SpyCatcher on HFA001 epoxy carrier
[8] = molecular target: PT linker-SpyCatcher-His (Streptococcus pyogenes); assay: depletion of SpyTag-GA (10 mg/g carrier) from E. coli lysate supernatant, SDS-PAGE densitometry; SpyCatcher on ECR8204 epoxy carrier
[9] = molecular target: PT linker-SpyCatcher-His (Streptococcus pyogenes); assay: depletion of SpyTag-GA (10 mg/g carrier) from E. coli lysate supernatant, SDS-PAGE densitometry; SpyCatcher on ECR8285 epoxy carrier
[10] = molecular target: PT linker-SpyCatcher-His (Streptococcus pyogenes); assay: depletion of SpyTag-GA (10 mg/g carrier) from E. coli lysate supernatant, SDS-PAGE densitometry; SpyCatcher on LX-103B epoxy carrier
[11] = molecular target: PT linker-SpyCatcher-His (Streptococcus pyogenes); assay: depletion of SpyTag-GA (10 mg/g carrier) from E. coli lysate supernatant, SDS-PAGE densitometry; SpyCatcher on LX-1000EP epoxy carrier
[12] = molecular target: PT linker-SpyCatcher-His (Streptococcus pyogenes); assay: depletion of SpyTag-GA (2.0 mg/g carrier) from E. coli lysate supernatant, SDS-PAGE densitometry; SpyCatcher-LX-1000EP; pH 7.0, 25 C, 2 h
[13] = molecular target: PT linker-SpyCatcher-His (Streptococcus pyogenes); assay: depletion of SpyTag-GA (10 mg/g carrier) from E. coli lysate supernatant, SDS-PAGE densitometry; SpyCatcher on LX-107S epoxy carrier (blocking control without SpyCatcher 72.5)

SpyTag-GS linker-GA-His fusion protein of a SpyTag and glutaryl-7-amidocephalosporanic acid acylase (from UniProt P07662 30-720) (enzyme)
Immobilization Efficiency (%) [1]: 94.7%
Immobilization Efficiency (%) [2]: 92.2%
Immobilization Efficiency (%) [3]: 90.9%
Immobilization Efficiency (%) [4]: 86.6%
Immobilization Efficiency (%) [5]: 96.9%
Immobilization Efficiency (%) [6]: 91.5%
Immobilization Efficiency (%) [7]: 79.4%
Immobilization Efficiency (%) [8]: 52.1%
Immobilization Efficiency (%) [9]: 57.4%
Immobilization Efficiency (%) [10]: 77%
Immobilization Efficiency (%) [11]: 77.6%
Immobilization Efficiency (%) [12]: 86.2%
Immobilization Efficiency (%) [13]: 49.1%
